Residue numbers refer to the chain shown, from its start. Names and notes keep the numbering of the source. “Also recorded” adds a separate entry of the source.
Columns and labels:
[1] = Activity of Syn5 RNAP-NP (gel); format: biochemical
From the text: FIG. 18 depicts gels showing expression and activity of Syn5 RNAP-NP.
(§1) The wild-type Syn5 RNA polymerase gene was modified as follows to improve expression in E. coli cells. Nucleotides in Syn5 RNA polymerase gene (No. 808-825) CCA TTG GGC ACC CGT AAG (SEQ ID NO:78) encoding Pro Leu Gly Thr Arg Lys (SEQ ID NO:79) were mutated to CCT CTT GGT ACG CGC AAG (SEQ ID NO:80) without changing the amino acids encoded, and the Syn5 promoter A TTG GGC ACC CGT AA (SEQ ID NO:81) within this region was removed (FIG. 16). Thus, when expressed in E. coli, the enzyme produced by the modified gene would not start transcription from its own gene, enabling the cells to grow much faster (FIG. 17) and yield at least 5 times more enzyme than cells expressing wild-type Syn5 RNAP.

E. coli BL21 (DE3) = assay: Growth curve of E. coli expressing Syn5 RNA polymerase from wild-type or modified vector; format: cell-based; conditions: versus vector expressing wild-type Syn5 RNAP
From the text: FIG. 17 graphically depicts a growth curve of E. coli BL21 (DE3) expressing Syn5 RNA polymerase from wild-type (WT, Syn5 RNAP-pET24a) or modified (Syn5 RNAP-NP-pET24a) vector.
as §1
E. coli BL21(DE3) was transformed with plasmid Syn5 RNAP-NP-pET24 encoding an N-terminal His-tagged Syn5 RNA polymerase. Cells were grown at 37° C. until they reached an OD of 1.2, at which point the temperature was reduced to 25° C. and IPTG was added at final concentration of 0.5 mM. Cells were grown an additional 4 hours before collection. The purification procedure used is described in “Zhu B, Tabor S, Richardson CC. (2014) Syn5 RNA polymerase synthesizes precise run-off RNA products. […]

[2] = tested on: template for a 2.7 knt RNA or human mitochondrial tRNA^ProUGG; assay: 2′-F-dNTP incorporation by Syn5 RNA polymerase Y564F; format: biochemical
From the text: FIGS. 28A, 28B, 28C and 28D depict gels showing a preference for 2′-F-dC/UTP over rC/UTP by Syn5 RNAP-Y564F.
Syn5 RNA polymerases containing Y564F and/or Y574F mutation were constructed using a known PCR mutagenesis method (see Higuchi et al., Nucleic Acids Res. 16:7351-7367 (1988) hereby incorporated by reference in its entirety), expressed and purified using known methods. The wild type gene background for the mutants was also modified, with the internal Syn5 promoter removed to reduce toxicity and increase the yield of the protein when expressed in E. coli. Purified proteins were analyzed by SDS-PAGE. The mutants were used to incorporate 2′-F-dNTPs as described below.
The reaction components were incubated at 37° C. for 4 hrs. 0.4 µl of the reaction mixture was loaded onto 2% agarose gel or 10% TBE gel and stained with ethidium bromide. Results are shown in FIG. 28A, FIG. 28B, FIG. 28C and FIG. 28D. The Y564F mutation does change the recognition of the 2′-group in the nucleotide substrates by Syn5 RNA polymerase. […] See FIG. 28A lane 4 vs 3; FIG. 28B lane 9-11 vs 6; FIG. 28C lane 11-13 vs 8).

B1: Syn5 RNAP-NP: Syn5 RNAP from modified gene (SEQ ID NO:83) with internal Syn5 promoter removed by silent mutations; same amino acids as wild-type (protein)
chain: MSFDLIARQLQRETEAAELARKRLQDARREANERSYASSNIESRKAIATFLDPIAQRIGERLFTLRRGTGAVDAAEVYKHLKNADHHHLALITMKTALDVLGKDPEPQIQQLTTAIGRNIQLELRLTYYAEENPELYKQASRFFHAGTGTRQKATVIKLKFNREGIEWDQWSRVTCHKVGQWLMLAMADVTGWIERATDRTSGGRKTKTRICYSREFLQHRDTILAAAEQLAFCQWPMLCPPIEWSNDHNGGYLSEQIRRVNPLIRKTGPLGTRKQGDIPLAMLNNLQGQAYKVNPEVLDIANHCYESNVTVGKFIRHAPLPVPPSPGEDCTEDQLTAYKRARREAEDFNAQISQKNWRTTEVMYVARKYADEASFWMPASFDYRGRVYFLNTALNPQGTDFDKALLYFAEEGPVNEWWLSFHVATTYGLDKETMVNRVQWARDNHELIDRIASDPVRHTEWHDADEPWCFLAACLEYKACVIDGTKQTSGLPIGIDATCSGLQHLAAMTRCGRTAALVNVTPTDKPADAYKTVAQASLKHLPKEQHEWITRKVTKRPVMCTPYGVTMSSARGYIRDQLVKDGHKEDLRSPGVLNGIVKAIFNEAIPEVIPGPVQVMAWLKRSAGQIIDRGDSTITWTTPSGFEVVQDLKKSKTYEVKTRIMGGARIKLQVGDGFTDEPDRDHHKSALAPNVVHSNDASLLHLTFAFWDKPFTVIHDCVLGRSCDMDQMGSDIRLHFAEMYKADVMQDWADQVGVELPVDLIKNTLDIDSVNQSLYFFS
modifications: Syn5 RNAP-NP
notes: same amino acids as wild-type
For B1, the “enzymatic activity versus wild-type” value [1] was “same enzymatic activity as the wild-type Syn5 RNAP; also recorded: comparable enzymatic activity” and the “toxicity to host cells” value (E. coli BL21 (DE3)) was “less toxic to host cells”.

B2: Syn5 RNA polymerase Y564F: Syn5 RNA polymerase Y564F mutant for the incorporation of 2′-F-dNTPs (protein)
chain: B1 chain with Y564F
modifications: Amino acid sequence of a cyanophage Syn5 RNAP
notes: Syn5 RNA polymerase Y564F mutant for the incorporation of 2′-F-dNTPs
In the case of B2, the “substrate preference 2′-F-dC/UTP versus rC/UTP” value ([2]; Mg buffer, 37° C.) is reported as “prefers 2′-F-dCTP and 2′-F-dUTP to canonical rCTP and rUTP”, the “synthesis of long 2′-F RNA” value ([2]; low enzyme concentration) is reported as “stably synthesizes long RNA containing 2′-F-dCMP and 2′-F-dUMP” and the “transcript with all four 2′-F-dNMPs” value ([2]; template starting with C) is reported as “Full-length transcript including all four 2′-F-dNMPs was synthesized”. The “discrimination to 2′-F-dATP and 2′-F-dGTP” value ([2]; versus wild type) was “reduced”.

Source: patent US11066655B2, “RNA polymerase, methods of purification and methods of use” (President and Fellows of Harvard College, priority 2013, dated 2021)
